Measured values: the nanobody polyreactivity screen of Harvey et al. (2022)

test: yeast display, Sf9 membrane polyspecificity reagent, FACS + sequencing; frameworks hold sequencing errors
Summary of the method: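 Sorting gates, low and high (top ~1%), were placed on anti-HA fluorescence to track expression and on streptavidin fluorescence to track reagent binding. A clone's polyreactivity label is taken from the gate it came out of. The reagent was 10% biotinylated, detergent-solubilized Sf9 membrane, applied for 1 hour at 4 °C to galactose-induced yeast display cells.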

For “QVQLVESGGGLVQAGGSLRFSCAASGGTFSGYAMGWYRQAPGKERELVAAITSGGGTTYADSVKGRFTISRDNAKNTVYLQMNSLKPEDTAVYYCAKEGHVVIFYIGQYELDYWGQGTQVTVSS”, which “polyreactivity (PSR sort gate)” value is on record?
Its value is “low polyreactivity”.

Which “polyreactivity (PSR sort gate)” value does the source give for “QVQLVESGGGLVQAGGSLRLSCAASGSTIPDYTMGWYRQAPGKEREFVAAISRIGGTYYADSVKGRFSISRDNAKNTVYLQMNSLKPEDTAVYSCNADPQGLSGRYHGFDYWGQGTQVTVSS” here?
The value was “low polyreactivity”.

Which “polyreactivity (PSR sort gate)” value does the source give for “QVQLVESVGGLVQAGGSLRLSCAASGSTFTSNAMGWYRQAPGKEREFVAAISVGGGITYYADSVKGRFTISRDNAKNTVYLQMNSLKPEDTAVYYCAADAWSVILWREMDYWGQGTQVTVSS” here?
Its value is “low polyreactivity”.

Which “polyreactivity (PSR sort gate)” value does the source give for “QVQIVESGGGLFQAGGSRRLSCAASGVMFSYYAMGWYRQAPGKDRELVAAISRRVGSTYYADSVKGRFTISRDNAKNTVYLQMNSLITQVTAVYYWNAYLYSRYEFDYWVQGTQVTVSS” here?
Its value is “high polyreactivity”.

With “QVQLVESRGGLVQAGGSLRFSCAASGSTFRDYAMGGSRQAPGKERQVLAAISSTGGRTYYADSVKGRFTISRDNAKNTVYLQMNSLKPEDTAVYYCKAALYPSLDYGSASISKSYDYWGQGTQVTVSS” as the sequence, how does the “polyreactivity (PSR sort gate)” value read?
Its value is “high polyreactivity”.

Which “polyreactivity (PSR sort gate)” value does the source give for “QVQLVESGGGLVQAGGSLRLSCAASGSTFPYYAMGWYRQAPGKERELVAAITSGGSTYYADSVKGRFTISRDNAKNTVYLQMNSLKPEDTAVYYCAARYAPTLSVYRFYYWGQGTQVTVSS” here?
The value was “high polyreactivity”.

For “QVQLVESGGGLVQAGGSLRLSCAASGSTFKTYAMGWYRQAPGKERELVAAITSSGGRTYYADSVKGRFTISRDNAKNTVYLQMNSLKPEDTAVYYCAAVRRSYNQLDYWGQGTQVTVSS”, which “polyreactivity (PSR sort gate)” value is on record?
The value was “high polyreactivity”.

For “QVQLVESGGGLVQAGGSLRLSCAASVLIFYDNIGWYRQAPGKERELVAAIDSGGNTYADSVKGRFTISRDNAKNTVYLQMNSLKPEDTAVYYCAVDGGEFSSYGYWGQGTQVTVSS”, which “polyreactivity (PSR sort gate)” value is on record?
The value was “low polyreactivity”.

With “QVQLVESGGGLVQAGGSLRLSCAASGGTIAFNGMGWYRQAPGKERELVAAITWRSGSTYYADSVKGRFTISRDNAKNTVYLQMNSLKPEDTAVYYCAARLYRYTPFDYWGQGTQVTVSS” as the sequence, how does the “polyreactivity (PSR sort gate)” value read?
The value was “high polyreactivity”.

Which “polyreactivity (PSR sort gate)” value does the source give for “QVQLEESGGGLVQAGGSLRLSCAASGSIFAVYAMGWYIQAPGKERELVATISGRGGSTYYADSVKGRFTISRDNAKNTVYLQMNSLKPEDTAVYYCNARVLFRRERMDSWGQGTQVTVSS” here?
Its value is “high polyreactivity”.

For “QVQLVESGGGLVQAGGSLRLSCAASGSTFYVYAMGWYRQAPGKERELVAAISRSGGSTYYADSVKGRFTISRDNAKNTVYLQMNSLKPEDTAVYYCAARGYSTYPMDYWGQGTQVTVSS”, which “polyreactivity (PSR sort gate)” value is on record?
The value was “high polyreactivity”.

With “QVQLVESGGGLVQAGGSLRLSCAASGRTFDTNAMGWYRQAPGKERELVAGITIGGSTNYADSVKGRFTISRDNAKNTVYLQMNILKPEDTAVYYCAADYGSVRGYAADYYEPEYDYWGQGTQVTVSS” as the sequence, how does the “polyreactivity (PSR sort gate)” value read?
Its value is “low polyreactivity”.

With “QVQLVESGGGLVQAGGSLRLSCAASGRIFTFYAMGWYRQAPGKERELVAVITTGTSTTYADSVKGRVTISRDNAKNTVYLQMNSLKPEDTAVYYCAVESWSRVQGWLAHNYDYWGQGTQVTVSS” as the sequence, how does the “polyreactivity (PSR sort gate)” value read?
The value was “low polyreactivity”.

For “QVQHVESGGGLVQAGGSLRLSCAASGLTFPYYVMGWYRQAPGKERELVAAIDDGGGSTYYADSVKGRFTISRDNAKNTVYLQMNSLKPVDTAVYYCAAQVDYLAHYGYWGQGTQVTVSS”, which “polyreactivity (PSR sort gate)” value is on record?
The value was “low polyreactivity”.

With “QVQLVESGGGLVQAGGSLRLSCAASGSIFFSNAMGRYRQAPGKERELVAGIRSGGITNYADSVKGRFTISRDNAKNTVYLQMNSLKPEDTAVYYCNADLAPSTPYFYYFPVRRDYWGQGTQVTVSS” as the sequence, how does the “polyreactivity (PSR sort gate)” value read?
The value was “low polyreactivity”.

With “QVQLVESGGGLVQAGGSLRLSCAASGSILDIYAMGWSRQAPGKERELVAGMSTTGGSTYYADSVKGRFTISRDNAKNTVYLQMNSLKPEDTAVYYCAKDYGYQGHTRTLYWAYLEYDYWGQGTQVTVSS” as the sequence, how does the “polyreactivity (PSR sort gate)” value read?
Its value is “low polyreactivity”.

Which “polyreactivity (PSR sort gate)” value does the source give for “QVQLVESGGGLVQAGGSLRLSCAASGSTFAQYVMGWYRQAPWKERELFAAISRGGGRTYYADSVKGRFTISRDNAKNTVYLQMNSLKPEDTAVYYCAAETLGVYDYESYNYYWGQGTQVTVSS” here?
The value was “high polyreactivity”.
